Measurements: paper PMC11602130 (Nucleic Acids Research, 2024)

Molecular target: CSA (human, untagged after removal of GST) (human, UniProt Q13216 1-396)
Test: pull-down

Chain of CSA (human, untagged after removal of GST) (Q13216 whole entry): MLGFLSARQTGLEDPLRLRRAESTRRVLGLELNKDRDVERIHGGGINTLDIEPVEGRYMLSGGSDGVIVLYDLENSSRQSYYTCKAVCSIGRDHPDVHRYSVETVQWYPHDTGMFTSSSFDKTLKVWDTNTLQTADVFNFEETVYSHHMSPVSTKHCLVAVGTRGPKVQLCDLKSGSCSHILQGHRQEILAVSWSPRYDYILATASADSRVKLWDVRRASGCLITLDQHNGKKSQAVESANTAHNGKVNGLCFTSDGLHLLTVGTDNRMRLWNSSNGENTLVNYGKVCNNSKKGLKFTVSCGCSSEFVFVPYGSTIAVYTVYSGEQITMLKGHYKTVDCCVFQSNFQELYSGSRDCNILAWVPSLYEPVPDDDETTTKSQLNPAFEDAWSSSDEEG

B1: His-STK19 (human STK19S, 254aa isoform) (natural protein, UniProt P49842 1-254, looked up)
chain: MSWKRHHLIPETFGVKRRRKRGPVESDPLRGEPGSARAAVSELMQLFPRGLFEDALPPIVLRSQVYSLVPDRTVADRQLKELQEQGEIRIVQLGFDLDAHGIIFTEDYRTRVLKACDGRPYAGAVQKFLASVLPACGDLSFQQDQMTQTFGFRDSEITHLVNAGVLTVRDAGSWWLAVPGAGRFIKYFVKGRQAVLSMVRKAKYRELLLSELLGRRAPVVVRLGLTYHVHDLIGAQLVDCISTTSGTLLRLPET
- binding result: binds
